This passage reports reduction of cell growth of CHO NTSR1 overexpressing cells and OD405nm results from patent US20170218057A1.

In one experiment the target is NTSR1 (UniProt P30989). Briefly: cell-based or functional assay.
Experiment [1] concerns the target p12026-BSA-conjugate (human). Briefly: ELISA, plate coated with p12026-BSA-conjugate 4 µg/ml; serum dilution 1:6400.
The target of experiment [2] is p12026-BSA-conjugate (human). Briefly: ELISA, plate coated with p12026-BSA-conjugate 4 µg/ml; serum dilution 1:800.
Experiment [3] deals with p12026-BSA-conjugate (human). Briefly: ELISA, plate coated with p12026-BSA-conjugate 4 µg/ml; serum dilution 1:1600.
The target of experiment [4] is p12026-BSA-conjugate (human). Briefly: ELISA, plate coated with p12026-BSA-conjugate 4 µg/ml; serum dilution 1:3200.
Experiment [5] concerns the target p12026-BSA-conjugate (human). Briefly: ELISA, plate coated with p12026-BSA-conjugate 4 µg/ml; serum dilution 1:100.
For experiment [6], the target named is p12026-BSA-conjugate (human). Briefly: ELISA, plate coated with p12026-BSA-conjugate 4 µg/ml; serum dilution 1:12800.
Experiment [7] deals with p12026-BSA-conjugate (human). Briefly: ELISA, plate coated with p12026-BSA-conjugate 4 µg/ml; serum dilution 1:400.
For experiment [8], the target named is p12026-BSA-conjugate (human). Briefly: ELISA, plate coated with p12026-BSA-conjugate 4 µg/ml; serum dilution 1:200.

p12026-BSA-conjugate (human), sequence (P02769 25-607 limits assumed): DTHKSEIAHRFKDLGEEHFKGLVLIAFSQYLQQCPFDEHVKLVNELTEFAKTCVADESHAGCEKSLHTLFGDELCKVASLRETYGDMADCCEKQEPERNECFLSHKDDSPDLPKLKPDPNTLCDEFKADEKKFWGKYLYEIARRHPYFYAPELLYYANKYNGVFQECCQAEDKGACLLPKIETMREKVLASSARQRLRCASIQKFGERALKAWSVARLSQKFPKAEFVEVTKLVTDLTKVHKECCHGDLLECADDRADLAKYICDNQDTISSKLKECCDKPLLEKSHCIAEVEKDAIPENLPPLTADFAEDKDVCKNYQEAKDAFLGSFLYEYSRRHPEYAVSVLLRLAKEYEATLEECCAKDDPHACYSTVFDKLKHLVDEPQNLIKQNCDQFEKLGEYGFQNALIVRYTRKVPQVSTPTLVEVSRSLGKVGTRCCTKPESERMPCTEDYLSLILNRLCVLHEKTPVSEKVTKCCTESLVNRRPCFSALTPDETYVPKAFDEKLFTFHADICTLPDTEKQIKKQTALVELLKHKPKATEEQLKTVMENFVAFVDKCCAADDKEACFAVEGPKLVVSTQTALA
NTSR1, sequence (P30989 whole entry): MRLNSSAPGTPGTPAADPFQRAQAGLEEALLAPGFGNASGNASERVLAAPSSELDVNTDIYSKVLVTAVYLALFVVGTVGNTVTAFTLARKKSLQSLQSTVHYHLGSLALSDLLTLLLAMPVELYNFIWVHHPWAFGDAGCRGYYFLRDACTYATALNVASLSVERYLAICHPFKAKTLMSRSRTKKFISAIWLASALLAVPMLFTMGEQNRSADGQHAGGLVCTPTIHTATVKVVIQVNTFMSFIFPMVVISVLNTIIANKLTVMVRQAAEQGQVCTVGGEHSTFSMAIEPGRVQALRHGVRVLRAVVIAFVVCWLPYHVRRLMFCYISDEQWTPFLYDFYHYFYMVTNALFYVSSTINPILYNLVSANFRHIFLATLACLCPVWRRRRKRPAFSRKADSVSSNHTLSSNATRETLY

Regarding “NTS released or expressed by cancer cells (from UniProt P30990 24-163) (ligand)”, the reduction of cell growth of CHO NTSR1 overexpressing cells in the experiment with NTSR1 was found to be 60%.
Turning to normal serum (antibody), the OD405nm in experiment [1] was determined as 0.009 OD405nm; in experiment [2], 0.012 OD405nm; in experiment [3] it was 0.008 OD405nm; in experiment [4] it was 0.01 OD405nm; in experiment [5], 0.032 OD405nm; in experiment [6], 0.004 OD405nm. The OD405nm in [7] and in experiment [8] was 0.016 OD405nm in each case.
